# B1: PNUTS(1-148), PNUTS amino-terminal domain (PAD) (domain or fragment)
# chain: MGSGPIDPKELLKGLDSFLNRDGEVKSVDGISKIFSLMKEARKMVSRCTYLNILLQTRSPEILVKFIDVGGYKLLNNWLTYSKTTNNIPLLQQILLTLQHLPLTVDHLKQNNTAKLVKQLSKSSEDEELRKLASVLVSDWMAVIRSQS
# Legend:
# Assay in all cases: BLI
# [1] = target: biotinylated MYC(1-88ΔMB0) (UniProt P01106)
# [2] = target: biotinylated MYC(1-88 Y24A)
# [3] = target: biotinylated MYC(1-88 P21A)
# [4] = target: biotinylated MYC(1-88 F23A)
# [5] = target: biotinyl-MB0 peptide (MYC 16-33) (UniProt P01106)
# [6] = target: biotinylated MYC(1-88 Y22A)
binder,measurement,setting,value
B1,Kd,[1],> 100 µM
same,fold weakening of KD against wild-type MYC(1-88),[2],> 5 fold
same,fold weakening of KD against wild-type MYC(1-88),[3],> 5 fold
same,fold weakening of KD against wild-type MYC(1-88),[4],> 5 fold
same,Kd,[5],9.4 µM
same,fold weakening of KD against wild-type MYC(1-88),[6],> 5 fold

# Source: doi:10.1101/2021.12.02.470928
